Assays:
[1] = target: KLK1-70Lm (KLK1 with D75, D76 and E77 replaced by arginines) (human); test: kinetics of protease inhibition (discontinuous assay); 1 µM rKAL preincubated 5 min with LMWH (0-2.5 mg/mL) at room temperature, then 10 nM KLK1-70Lm; kobs plotted against LMWH
[2] = target: KLK1-99Lm (KLK1 with nine residues of its 99 loop deleted) (human) (UniProt P06870); test: kinetics of protease inhibition (discontinuous assay); pseudo-first-order; 10 nM protease with 100-500 nM kallistatin variant, PBS, 0.1% PEG 8000, 22 ± 1 °C; apparent second-order rate constant kapp from kobs; k2 = kapp × SI
[3] = target: KLK1-70Lm (KLK1 with D75, D76 and E77 replaced by arginines) (human); test: as above

fold acceleration of the inhibition rate with LMWH against no heparin [1]: 5 fold
second-order association rate constant [2]: 200 M⁻¹ s⁻¹
k2 (second-order rate constant) [3]: 1800 M⁻¹ s⁻¹
B1: Recombinant human kallistatin (rKAL), wild type (natural protein)
chain: GSPSLKIAPANADFAFRFYYLIASETPGKNIFFSPLSISAAYAMLSLGACSHSRSQILEGLGFNLTELSESDVHRGFQHLLHTLNLPGHGLETRVGSALFLSHNLKFLAKFLNDTMAVYEAKLFHTNFYDTVGTIQLINDHVKKETRGKIVDLVSELKKDVLMVLVNYIYFKALWEKPFISSRTTPKDFYVDENTTVRVPMMLQDQEHHWYLHDRYLPCSVLRMDYKGDATVFFILPNQGKMREIEEVLTPEMLMRWNNLLRKRNFYKKLELHLPKFSISGSYVLDQILPRLGFTDLFSKWADLSGITKQQKLEASKSFHKATLDVDEAGTEAAAATSFAIKFFSAQTNRHILRFNRPFLVVIFSTSTQSVLFLGKVVDPTKP

From PMC7356578
